The record followed here is the supplement of paper PMC12855868.

B1: library; numbered along this chain (parent)
chain: MAAAGGARLLRAASAVLGGPAGRWLHHAGSRAGSSGLLRNRGPGGSAEASRSLSVSARARSSSEDKITVHFINRDGETLTTKGKVGDSLLDVVVENNLDIDGFGACEGTLACSTCHLIFEDHIYEKLDAITDEENDMLDLAYGLTDRSRLGCQICLTKSMDNMTVRVPETVADARQSIDVGKTS

The data set covers variants of B1. The experiment in a line: scaled log2 fold change in cell abundance, elesclomol vs control (0 = silent mean, 1 = nonsense mean) (scaled log2 ratio); higher = higher viability under elesclomol (loss of FDX1 cuproptosis function). Conditions: glucose 10 mM. As to the method: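 Deep mutational scan of full-length human FDX1: a pooled saturation-mutagenesis ORF library (every residue 2-184 mutated to all 19 amino acids plus stop, and silent codons where available) was expressed by lentivirus in FDX1-knockout ABC1 (14 days) or HEK293T (11 days) cells grown with elesclomol (ES) or DMSO control. Variant abundance came from ORF sequencing. The log2 fold change (ES vs control, mean of duplicates) was centred on the silent-variant mean (0) and scaled to the nonsense-variant mean (1). Higher values mean greater viability under ES, i.e. loss of FDX1 function in cuproptosis.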

The mark [1] stands for this setting: with ABC1 FDX1 KO, elesclomol 5 nM, 14 days.
Setting [2] is: with HEK293T FDX1 KO, elesclomol 40 nM, 11 days.
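Note: variant abundance is its share of total variant reads in each endpoint sample, from next-generation sequencing of the integrated ORF PCR-amplified out of genomic DNA.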

MCAAGGARLLRAASAVLGGPAGRWLHHAGSRAGSSGLLRNRGPGGSAEASRSLSVSARARSSSEDKITVHFINRDGETLTTKGKVGDSLLDVVVENNLDIDGFGACEGTLACSTCHLIFEDHIYEKLDAITDEENDMLDLAYGLTDRSRLGCQICLTKSMDNMTVRVPETVADARQSIDVGKTS [A2C]: the “scaled log2 fold change” value reads like this: under setting [1], 0.441; under setting [2], 0.0714. For the variant MHAAGGARLLRAASAVLGGPAGRWLHHAGSRAGSSGLLRNRGPGGSAEASRSLSVSARARSSSEDKITVHFINRDGETLTTKGKVGDSLLDVVVENNLDIDGFGACEGTLACSTCHLIFEDHIYEKLDAITDEENDMLDLAYGLTDRSRLGCQICLTKSMDNMTVRVPETVADARQSIDVGKTS [A2H], the “scaled log2 fold change” value stood at 0.1 under setting [1] and 0.132 under setting [2]. The matching figures for MKAAGGARLLRAASAVLGGPAGRWLHHAGSRAGSSGLLRNRGPGGSAEASRSLSVSARARSSSEDKITVHFINRDGETLTTKGKVGDSLLDVVVENNLDIDGFGACEGTLACSTCHLIFEDHIYEKLDAITDEENDMLDLAYGLTDRSRLGCQICLTKSMDNMTVRVPETVADARQSIDVGKTS [A2K]: 0.0757 and -0.0727. For MFAAGGARLLRAASAVLGGPAGRWLHHAGSRAGSSGLLRNRGPGGSAEASRSLSVSARARSSSEDKITVHFINRDGETLTTKGKVGDSLLDVVVENNLDIDGFGACEGTLACSTCHLIFEDHIYEKLDAITDEENDMLDLAYGLTDRSRLGCQICLTKSMDNMTVRVPETVADARQSIDVGKTS [A2F], the “scaled log2 fold change” value by setting is: under setting [1], 0.0573; under setting [2], -0.164. As for MIAAGGARLLRAASAVLGGPAGRWLHHAGSRAGSSGLLRNRGPGGSAEASRSLSVSARARSSSEDKITVHFINRDGETLTTKGKVGDSLLDVVVENNLDIDGFGACEGTLACSTCHLIFEDHIYEKLDAITDEENDMLDLAYGLTDRSRLGCQICLTKSMDNMTVRVPETVADARQSIDVGKTS [A2I], the “scaled log2 fold change” value by setting is: under setting [1], -0.127; under setting [2], -0.279.

For the variant MDAAGGARLLRAASAVLGGPAGRWLHHAGSRAGSSGLLRNRGPGGSAEASRSLSVSARARSSSEDKITVHFINRDGETLTTKGKVGDSLLDVVVENNLDIDGFGACEGTLACSTCHLIFEDHIYEKLDAITDEENDMLDLAYGLTDRSRLGCQICLTKSMDNMTVRVPETVADARQSIDVGKTS [A2D], the “scaled log2 fold change” value was 0.173 under setting [1] and 0.487 under setting [2]. The matching figures for MLAAGGARLLRAASAVLGGPAGRWLHHAGSRAGSSGLLRNRGPGGSAEASRSLSVSARARSSSEDKITVHFINRDGETLTTKGKVGDSLLDVVVENNLDIDGFGACEGTLACSTCHLIFEDHIYEKLDAITDEENDMLDLAYGLTDRSRLGCQICLTKSMDNMTVRVPETVADARQSIDVGKTS [A2L]: 0.0991 and -0.056.

With MEAAGGARLLRAASAVLGGPAGRWLHHAGSRAGSSGLLRNRGPGGSAEASRSLSVSARARSSSEDKITVHFINRDGETLTTKGKVGDSLLDVVVENNLDIDGFGACEGTLACSTCHLIFEDHIYEKLDAITDEENDMLDLAYGLTDRSRLGCQICLTKSMDNMTVRVPETVADARQSIDVGKTS [A2E], the “scaled log2 fold change” value is, setting by setting: under setting [1], -0.26; under setting [2], 0.752.

In the case of MGAAGGARLLRAASAVLGGPAGRWLHHAGSRAGSSGLLRNRGPGGSAEASRSLSVSARARSSSEDKITVHFINRDGETLTTKGKVGDSLLDVVVENNLDIDGFGACEGTLACSTCHLIFEDHIYEKLDAITDEENDMLDLAYGLTDRSRLGCQICLTKSMDNMTVRVPETVADARQSIDVGKTS [A2G], the “scaled log2 fold change” value under setting [1] was 0.451.
